Reference: patent publication US20090163698A1, “Method for Preparing Antibody Conjugates” (priority 2007, published 2009)

Target: human αVβ3/5 integrin (human) (UniProt P06756)
Experiment: cell-based or functional assay
Parameters: IC50 of doxorubicin, cell viability, colon cancer HT29 cells, targeted liposomes 40:1 / IC50 of doxorubicin, cell viability, colon cancer HT29 cells, targeted liposomes 90:1 / IC50 of doxorubicin, cell viability, melanoma A375.S2 cells, targeted liposomes 40:1 / IC50 of doxorubicin, cell viability, melanoma A375.S2 cells, targeted liposomes 90:1 / IC50 of doxorubicin, cell viability, ovarian cancer A2780 cells, targeted liposomes 40:1 / IC50 of doxorubicin, cell viability, ovarian cancer A2780 cells, targeted liposomes 90:1: unit not given beside the values

Sequence of human αVβ3/5 integrin (human) (P06756 31-1048): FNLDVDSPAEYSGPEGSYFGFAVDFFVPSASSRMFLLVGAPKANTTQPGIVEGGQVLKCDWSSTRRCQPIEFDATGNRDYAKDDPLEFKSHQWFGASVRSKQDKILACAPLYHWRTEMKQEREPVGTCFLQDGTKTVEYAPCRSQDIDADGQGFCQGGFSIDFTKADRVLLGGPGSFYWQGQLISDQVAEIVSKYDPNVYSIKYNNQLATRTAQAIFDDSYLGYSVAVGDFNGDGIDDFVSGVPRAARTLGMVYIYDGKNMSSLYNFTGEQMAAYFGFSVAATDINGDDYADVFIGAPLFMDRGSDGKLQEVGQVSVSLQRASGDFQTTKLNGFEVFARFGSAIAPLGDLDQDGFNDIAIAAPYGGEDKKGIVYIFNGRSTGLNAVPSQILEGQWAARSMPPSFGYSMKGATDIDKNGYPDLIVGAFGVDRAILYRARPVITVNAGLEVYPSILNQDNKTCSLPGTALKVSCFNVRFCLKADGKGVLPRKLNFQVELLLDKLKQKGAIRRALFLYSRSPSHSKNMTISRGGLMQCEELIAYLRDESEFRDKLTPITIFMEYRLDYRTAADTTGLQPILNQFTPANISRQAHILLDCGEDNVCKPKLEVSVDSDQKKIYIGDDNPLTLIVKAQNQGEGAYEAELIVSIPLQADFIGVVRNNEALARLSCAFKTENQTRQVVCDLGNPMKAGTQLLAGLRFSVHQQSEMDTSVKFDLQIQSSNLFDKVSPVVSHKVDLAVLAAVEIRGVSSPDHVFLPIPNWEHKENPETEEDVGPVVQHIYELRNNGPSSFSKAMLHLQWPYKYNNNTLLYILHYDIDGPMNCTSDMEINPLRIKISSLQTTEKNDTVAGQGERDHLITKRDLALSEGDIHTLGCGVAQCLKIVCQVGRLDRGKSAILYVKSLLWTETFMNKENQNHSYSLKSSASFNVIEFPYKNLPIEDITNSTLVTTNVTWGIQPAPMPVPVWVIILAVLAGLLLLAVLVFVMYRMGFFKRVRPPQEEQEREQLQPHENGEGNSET

CNTO 95 Fab′ (anti-alpha-V Fab′ made by pepsin cleavage of the parent antibody, reduction and reoxidation), conjugated to MalPEG-DSPE on the surface of liposomes
IC50 of doxorubicin, cell viability, colon cancer HT29 cells, targeted liposomes 40:1: 180
IC50 of doxorubicin, cell viability, colon cancer HT29 cells, targeted liposomes 90:1: > 200
IC50 of doxorubicin, cell viability, melanoma A375.S2 cells, targeted liposomes 40:1: 15
IC50 of doxorubicin, cell viability, melanoma A375.S2 cells, targeted liposomes 90:1: 7
IC50 of doxorubicin, cell viability, ovarian cancer A2780 cells, targeted liposomes 40:1: 12
IC50 of doxorubicin, cell viability, ovarian cancer A2780 cells, targeted liposomes 90:1: 7
Increase (ratio of IC50 of liposome-entrapped doxorubicin to IC50 of 90:1 targeted liposomes), A375.S2 cells: 29 fold
Increase (ratio of IC50 of liposome-entrapped doxorubicin to IC50 of 90:1 targeted liposomes), A549 cells: 1 fold
Increase (ratio of IC50 of liposome-entrapped doxorubicin to IC50 of 90:1 targeted liposomes), A2780 cells: 29 fold
Increase (ratio of IC50 of liposome-entrapped doxorubicin to IC50 of 90:1 targeted liposomes), HT29 cells: 1.1 fold
Increase (ratio of IC50 of liposome-entrapped doxorubicin to IC50 of 90:1 targeted liposomes), MDA-MB-231 cells: 5 fold
